Measurements: PMC6901573

How the values were obtained:
[1] = molecular target: Human hemoglobin A, reduced oxygenated form (OxyHb) (human) (UniProt P69905); test: SEC; tetramer to dimers; HiLoad 16/600 Superdex 75 in reaction buffer (Tris/HCl 100 mM, NaCl 150 mM, EDTA 1 mM, pH 8.0); Hb in the oxy and met forms injected at different concentrations
[2] = molecular target: Human hemoglobin A, oxidized form (methemoglobin, MetHb) (human) (UniProt P69905); test: as above

Substance: Human hemoglobin A, reduced oxygenated form (OxyHb), P69905 1-142; P68871 1-147 (complex; other documents disagree on this pair)
- Kd [1]: 250 nM

Substance: Human hemoglobin A, oxidized form (methemoglobin, MetHb), P69905 1-142; P68871 1-147 (complex; other documents disagree on this pair)
- Kd [2]: 520 nM
